The source of these data is article PMC9313153, “Supramolecular Enzymatic Labeling for Aptamer Switch-Based Electrochemical Biosensor”.

The data set addresses carcinoembryonic antigen (CEA) (UniProt P06731 35-685). The experiment in a line: amperometric aptasensor (electrode-immobilized aptamer, HRP-CD label); HRP-CD, H2O2; detection range 10 pg/mL to 1 ng/mL, LOD 3.1 pg/mL (not a Kd); Aptamer electrode washed in 20 mM Tris-HCl pH 7.4, 100 mM NaCl, 5 mM MgCl2; casein block; read-out in 0.1 M sodium phosphate pH 7.4 with H2O2; CEA incubation buffer and temperature not in the material. To be noted: protein: commercial; label: 5' thiol on gold nanoparticles; 3' adamantane for HRP-cyclodextrin; hairpin.

carcinoembryonic antigen (CEA), sequence (P06731 35-685): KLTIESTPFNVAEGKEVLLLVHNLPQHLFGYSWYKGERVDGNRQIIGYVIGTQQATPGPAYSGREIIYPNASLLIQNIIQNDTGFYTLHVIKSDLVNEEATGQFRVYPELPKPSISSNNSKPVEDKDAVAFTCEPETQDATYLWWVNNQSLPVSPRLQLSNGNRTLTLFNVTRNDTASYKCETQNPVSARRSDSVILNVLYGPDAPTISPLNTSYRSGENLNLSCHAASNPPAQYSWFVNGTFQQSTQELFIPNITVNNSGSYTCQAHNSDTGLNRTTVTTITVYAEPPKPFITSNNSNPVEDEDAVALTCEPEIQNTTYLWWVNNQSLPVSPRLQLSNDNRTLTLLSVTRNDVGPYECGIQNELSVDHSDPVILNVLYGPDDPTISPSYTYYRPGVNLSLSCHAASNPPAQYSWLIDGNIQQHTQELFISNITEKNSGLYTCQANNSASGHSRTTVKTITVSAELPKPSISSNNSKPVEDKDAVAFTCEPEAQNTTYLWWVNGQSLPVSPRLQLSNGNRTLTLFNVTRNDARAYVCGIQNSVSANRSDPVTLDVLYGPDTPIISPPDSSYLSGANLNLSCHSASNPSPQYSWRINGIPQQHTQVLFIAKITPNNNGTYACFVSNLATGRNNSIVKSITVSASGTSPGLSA

For CCACGATACCAGCTTATTCAATTCGTGG (structured_DNA, 5'-HS-(CH2)6; 3'-(CH2)6-NH2 converted to adamantane (ADA)) [Apt-ADA (anti-CEA aptamer)], the binding result is given as “binds”.
